This data set deals with the molecule itself. Description: NMR signal intensities and chemical shifts (1H-15N correlation spectra) of the mutant against the wild type; per-residue chemical shift difference and intensity ratio between MEC-2 C-terminal domain WT and R385H, no partner added.

B1: MEC-2 C-terminal domain R385H mutant (domain or fragment, C. elegans, UniProt Q27433 371-481, looked up)
chain: PPKVEEPPSLPKKIHSCCLYKYPDWVQGMVGSEGGGGHGHSHGGGGGGLGSSQGAFHPSQAGSGPSTTTTSGRPLLRSMREAQFHSAAPPISAPNQSQTSVSQLDPALLIR
notes: MEC-2 (stomatin), C. elegans, C-terminal domain, residues 371-481 as for the wild-type construct, with R385H (allele u26); also called MEC-2 (R385H); u26 allele
Regarding B1, the binding result was “binds”.
